Source: paper PMC3597501 (2013)

Target: T1, GST-TUD1 (Oryza sativa subsp. japonica (Rice), UniProt Q10PI9)
T1 chain: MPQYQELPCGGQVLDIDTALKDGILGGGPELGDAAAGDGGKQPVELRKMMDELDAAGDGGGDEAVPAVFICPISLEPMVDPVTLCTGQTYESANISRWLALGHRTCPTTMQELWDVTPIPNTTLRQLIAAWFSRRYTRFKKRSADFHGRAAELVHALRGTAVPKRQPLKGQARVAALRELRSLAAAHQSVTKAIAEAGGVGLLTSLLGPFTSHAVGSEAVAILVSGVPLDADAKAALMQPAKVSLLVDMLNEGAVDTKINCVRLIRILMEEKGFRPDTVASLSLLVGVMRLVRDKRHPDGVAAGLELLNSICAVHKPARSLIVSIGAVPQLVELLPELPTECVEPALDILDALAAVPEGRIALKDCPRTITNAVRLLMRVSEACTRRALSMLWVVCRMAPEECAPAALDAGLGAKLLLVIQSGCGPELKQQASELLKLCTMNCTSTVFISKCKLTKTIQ
Assay: GST pull-down

B1: D1-tagged His (purified D1 fusion protein) (protein)
chain: MGSSCSRSHSLSEAETTKNAKSADIDRRILQETKAEQHIHKLLLLGAGESGKSTIFKQIKLLFQTGFDEAELRSYTSVIHANVYQTIKILYEGAKELSQVESDSSKYVISPDNQEIGEKLSDIDGRLDYPLLNKELVLDVKRLWQDPAIQETYLRGSILQLPDCAQYFMENLDRLAEAGYVPTKEDVLYARVRTNGVVQIQFSPVGENKRGGEVYRLYDVGGQRNERRKWIHLFEGVNAVIFCAAISEYDQMLFEDETKNRMMETKELFDWVLKQRCFEKTSFILFLNKFDIFEKKIQKVPLSVCEWFKDYQPIAPGKQEVEHAYEFVKKKFEELYFQSSKPDRVDRVFKIYRTTALDQKLVKKTFKLIDESMRRSREGT
B1: binds.
